US20260144882A1 (BIO THERA SOLUTIONS, published 2026)
Values joined by “and” are separate entries in the source; they are usually repeats but may differ in a detail not shown here. Identical values can stand only once.

T1: human Nectin-4 extracellular antigen hNectin-4-His (human, UniProt Q96NY8 32-349)
T1 construct: C-terminal 8xHis tag included
T1 sequence: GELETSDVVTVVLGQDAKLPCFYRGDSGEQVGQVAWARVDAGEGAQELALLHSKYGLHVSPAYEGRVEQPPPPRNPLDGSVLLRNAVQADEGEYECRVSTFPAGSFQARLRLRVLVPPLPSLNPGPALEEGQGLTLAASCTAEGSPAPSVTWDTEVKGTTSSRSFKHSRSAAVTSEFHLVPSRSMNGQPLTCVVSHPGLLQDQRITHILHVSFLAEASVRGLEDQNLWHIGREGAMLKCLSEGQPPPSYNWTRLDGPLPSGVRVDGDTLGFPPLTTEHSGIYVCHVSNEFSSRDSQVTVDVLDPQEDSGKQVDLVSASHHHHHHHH

T2: monkey cNectin-4 protein (ACRO, NE4-C52H4) (cynomolgus monkey, UniProt A0A2K5WES1 32-349)
T2 construct: bought; construct not described; also called cynomolgus monkey Nectin-4
T2 sequence: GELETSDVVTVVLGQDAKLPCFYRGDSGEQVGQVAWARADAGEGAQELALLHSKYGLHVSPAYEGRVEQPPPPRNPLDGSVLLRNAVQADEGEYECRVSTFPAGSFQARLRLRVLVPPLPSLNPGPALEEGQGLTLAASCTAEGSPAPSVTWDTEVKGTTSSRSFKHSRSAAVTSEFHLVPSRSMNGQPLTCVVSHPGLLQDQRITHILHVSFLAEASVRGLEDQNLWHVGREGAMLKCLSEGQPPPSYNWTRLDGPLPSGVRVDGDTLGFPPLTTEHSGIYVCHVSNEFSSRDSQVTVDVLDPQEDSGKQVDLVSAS

T3: mouse mNectin-4 protein (ACRO, NE4-M52H3) (mouse, UniProt Q8R007 31-347)
T3 construct: bought; construct not described; also called mouse Nectin-4
T3 sequence (looked up): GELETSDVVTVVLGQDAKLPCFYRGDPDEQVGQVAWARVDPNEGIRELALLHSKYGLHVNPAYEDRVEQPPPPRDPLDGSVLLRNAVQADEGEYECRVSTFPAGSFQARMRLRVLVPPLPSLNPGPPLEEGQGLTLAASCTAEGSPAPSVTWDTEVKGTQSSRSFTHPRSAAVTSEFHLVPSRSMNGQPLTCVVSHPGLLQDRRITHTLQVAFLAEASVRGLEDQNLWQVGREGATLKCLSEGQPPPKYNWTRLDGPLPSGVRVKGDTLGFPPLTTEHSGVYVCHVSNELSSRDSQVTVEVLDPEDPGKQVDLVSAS

T4: human Nectin-4, full length on cells (human, UniProt Q96NY8 32-510)
T4 construct: whole, on cells; T-47D cells positive for Nectin-4 expression; also called Nectin-4 on T-47D cells; CHO-Nectin-4
T4 sequence (looked up): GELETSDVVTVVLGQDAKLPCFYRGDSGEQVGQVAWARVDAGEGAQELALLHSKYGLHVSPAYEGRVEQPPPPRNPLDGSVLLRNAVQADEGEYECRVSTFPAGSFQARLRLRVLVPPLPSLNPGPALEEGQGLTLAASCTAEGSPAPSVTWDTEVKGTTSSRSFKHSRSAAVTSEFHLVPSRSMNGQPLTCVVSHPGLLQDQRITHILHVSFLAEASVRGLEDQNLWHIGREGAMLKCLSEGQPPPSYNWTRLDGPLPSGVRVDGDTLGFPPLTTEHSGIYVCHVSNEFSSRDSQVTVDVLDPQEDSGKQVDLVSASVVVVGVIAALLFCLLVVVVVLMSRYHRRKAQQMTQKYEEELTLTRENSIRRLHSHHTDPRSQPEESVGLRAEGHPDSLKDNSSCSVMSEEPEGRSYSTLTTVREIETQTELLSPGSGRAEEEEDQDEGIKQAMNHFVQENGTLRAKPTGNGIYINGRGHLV

B1: antibody 1G8 (antibody, human IgG1, kappa, V domains shown)
VH: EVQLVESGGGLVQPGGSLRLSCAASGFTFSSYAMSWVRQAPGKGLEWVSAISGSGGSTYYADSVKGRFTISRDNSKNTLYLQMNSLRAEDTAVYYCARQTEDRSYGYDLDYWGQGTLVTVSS
VL: DIQMTQSPSSLSASVGDRVTITCRASQGISSYLAWYQQKPGKAPKLLIYAASSLQSGVPSRFSGSGSGTDFTLTISSLQPEDFATYYCQQHYTTPPTFGQGTKVEIKR
B2: antibody 1F3 (antibody, human IgG1, kappa, V domains shown)
VH: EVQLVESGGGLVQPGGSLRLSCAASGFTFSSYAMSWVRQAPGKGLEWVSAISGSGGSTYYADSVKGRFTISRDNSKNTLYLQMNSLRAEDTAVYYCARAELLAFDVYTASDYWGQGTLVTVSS
VL: B1 VL
B3: antibody 10F4 (antibody, human IgG1, kappa, V domains shown)
VH: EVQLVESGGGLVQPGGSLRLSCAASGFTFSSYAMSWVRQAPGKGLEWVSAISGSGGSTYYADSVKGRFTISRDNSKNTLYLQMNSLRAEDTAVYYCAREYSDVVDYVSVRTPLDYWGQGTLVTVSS
VL: B1 VL

target: T1, human Nectin-4 extracellular antigen …; experiment: ELISA, coated antigen

EC50 [µg/mL] | Binder
0.043 | B1
0.036 | B2
0.041 | B3

target: T2, monkey cNectin-4 protein (ACRO, …); experiment: ELISA, coated antigen

EC50 [µg/mL] | Binder
0.036 | B1
0.034 | B2
0.041 | B3

target: T3, mouse mNectin-4 protein (ACRO, …); experiment: ELISA, coated antigen

EC50 [µg/mL] | Binder
0.037 | B1
0.034 | B2
0.041 | B3

target: T1, human Nectin-4 extracellular antigen …; experiment: ELISA, coated hNectin-4-His
Description: The binding activity of the antibodies was detected by ELISA.

EC50 [µg/mL] | Binder
0.068 | B1
0.041 | B2
0.038 | B3

target: T4, human Nectin-4, full length on cells; experiment: flow cytometry on T-47D cells
Experimental: In this study, the binding activity of different antibodies to T-47D cells positive for Nectin-4 expression was detected by FACS, and the EC₅₀ for the binding of antibodies to the cells was analyzed by a four-parameter method. The procedures are briefly described as follows: T-47D cells (the Cell Bank of Chinese Academy of Sciences, TCHu 87) were trypsinized; the antibodies were serially diluted and co-incubated with T-47D cells at 4° C. for 0.5-1 h, followed by the addition of the secondary PE-labeled anti-human Fc antibody (Invitrogen, 12-4998-82); the signal intensity of red fluorescence was detected on a flow cytometer, and curves were plotted using Graphpad Prism and the EC₅₀ was calculated.

EC50 | Binder
0.109 µg/mL and 0.727 nM | B1
0.116 µg/mL and 0.77 nM | B2
0.156 µg/mL and 1.04 nM | B3

target: T1, human Nectin-4 extracellular antigen …; experiment: SPR, antibody on Protein A chip, hNectin-4-His analyte, 1:1 fit
Description: In this study, the affinity of the antibodies for the human Nectin-4 extracellular antigen was detected by surface plasmon resonance (SPR) technique (BIAcore: GE Healthcare, T200).

Kd [nM] | koff [s⁻¹] | kon [M⁻¹ s⁻¹] | Binder
4.97 | 0.003 | 605000 | B1
3.21 | 0.00261 | 813000 | B2
2.77 | 0.00103 | 373000 | B3

target: T4, human Nectin-4, full length on cells; experiment: flow cytometry, T-47D cells, antibody bound on ice, 0 h at 37 C
Experimental: In this assay, the relative amount of antibodies remaining on the cell surface after co-incubation at 37° C. for a certain period of time was detected by FACS to reflect the endocytosis efficiency. The procedures are briefly described as follows: T-47D cells (human ductal breast cancer cells, derived from the Cell Bank of Chinese Academy of Sciences, Cat.No. TCHu 87); the antibodies of interest were adjusted to 10 µg/mL and co-incubated with the cells on ice for 1 h; the cells were washed 3 times with pre-cooled PBS, and then placed at 37° C. and incubated for 0 h, 2 h and 4 h; 0.2% N₃Na was added to stop the endocytosis reaction; the cells were washed with PBS thrice, followed by the addition of the PE-labeled anti-human Fc secondary antibody (Invitrogen 12-4998-82); the cells were incubated at 4° C. for 30 min; the red fluorescence signal was detected on a flow cytometer.

MFI (mean fluorescence intensity) 0 h [MFI] | Binder
105000 | B1
121000 | B2
104000 | B3
